Experiments:
[1] = target: T1, MARV VP35 RBD (Marburg virus, UniProt P35259 205-329); experiment: dual-filter dot blot; Hill 2.1±0.2; 10 mM Tris pH 8.0, 200 mM NaCl, 2 mM TCEP ([…], and ITC); temperature not stated; settings: protein: recombinant; tags: 6xHis (pET46b), TEV-cleaved; chain copies: 4; label: 5'-32P sense strand
[2] = target: T1, MARV VP35 RBD; experiment: ITC; 10 mM Tris pH 8.0, 200 mM NaCl, 2 mM TCEP ([…], and ITC); temperature not stated; settings: protein: recombinant, tags: 6xHis (pET46b), TEV-cleaved, chain copies: 4, label: 5'-32P sense strand (dot blot), none in ITC
[3] = target: T2, RESTV VP35 RBD (Reston virus (RESTV), UniProt Q8JPY0 205-329); experiment: dual-filter dot blot; Hill 2.6±0.2; 10 mM Tris pH 8.0, 200 mM NaCl, 2 mM TCEP ([…], and ITC); temperature not stated; settings: protein: recombinant; tags: 6xHis, cleaved; chain copies: 2; label: 5'-32P sense strand (dot blot); none in ITC; blunt
T2 sequence: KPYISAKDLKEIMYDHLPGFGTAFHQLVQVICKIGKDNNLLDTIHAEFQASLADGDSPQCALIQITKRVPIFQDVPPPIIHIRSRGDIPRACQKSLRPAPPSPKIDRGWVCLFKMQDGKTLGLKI

[4] = target: T3, EBOV VP35 RBD (Ebola virus, UniProt Q05127 216-340); experiment: dual-filter dot blot; Hill 2.9±0.3; 10 mM Tris pH 8.0, 200 mM NaCl, 2 mM TCEP ([…], and ITC); temperature not stated; settings: protein: recombinant; tags: 6xHis, cleaved; label: 5'-32P sense strand (dot blot); none in ITC; blunt
T3 sequence (Q05127 216-340): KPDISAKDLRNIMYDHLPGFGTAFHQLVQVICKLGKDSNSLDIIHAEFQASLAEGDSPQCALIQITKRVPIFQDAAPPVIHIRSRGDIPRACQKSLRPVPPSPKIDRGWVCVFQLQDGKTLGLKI

[5] = target: T1, MARV VP35 RBD; experiment: dual-filter dot blot; Hill 3.5±0.3; 10 mM Tris pH 8.0, 200 mM NaCl, 2 mM TCEP ([…], and ITC); temperature not stated; settings: protein: recombinant; tags: 6xHis (pET46b), TEV-cleaved; chain copies: 4; label: 5'-32P sense strand (dot blot); none in ITC; blunt
[6] = target: T1, MARV VP35 RBD; experiment: X-ray crystal structure; 10 mM Tris pH 8.0, 200 mM NaCl, 2 mM TCEP ([…], and ITC); temperature not stated; settings: protein: recombinant; tags: 6xHis (pET46b), TEV-cleaved; chain copies: 4
[7] = target: T1, MARV VP35 RBD; experiment: dual-filter dot blot; Hill 3.1±0.2; 10 mM Tris pH 8.0, 200 mM NaCl, 2 mM TCEP ([…], and ITC); temperature not stated; settings: protein: recombinant; tags: 6xHis (pET46b), TEV-cleaved; chain copies: 4; label: 5'-32P sense strand (dot blot); none in ITC
[8] = target: T2, RESTV VP35 RBD; experiment: dual-filter dot blot; Hill 3.4±0.4; 10 mM Tris pH 8.0, 200 mM NaCl, 2 mM TCEP ([…], and ITC); temperature not stated; settings: protein: recombinant; tags: 6xHis, cleaved; chain copies: 2; label: 5'-32P sense strand (dot blot); none in ITC
[9] = target: T3, EBOV VP35 RBD; experiment: dual-filter dot blot; Hill 3.6±0.4; 10 mM Tris pH 8.0, 200 mM NaCl, 2 mM TCEP ([…], and ITC); temperature not stated; settings: protein: recombinant; tags: 6xHis, cleaved; label: 5'-32P sense strand (dot blot); none in ITC

T1 sequence (P35259 205-329): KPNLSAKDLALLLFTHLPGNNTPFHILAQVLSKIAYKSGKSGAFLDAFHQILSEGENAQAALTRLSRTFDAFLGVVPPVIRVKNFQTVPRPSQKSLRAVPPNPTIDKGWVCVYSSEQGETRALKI

B1: 18-bp dsRNA with 5' overhang (dsRNA)
RNA 1: GAGAGAAGGAGGGAGGGAGGA
RNA 2: UCCUCCCUCCCUCCUUCUCUC
Question: With B1 as the binder, how does the Kd [1] read?
Answer: 4.4 ± 0.3 µM

B2: 18-bp blunt-ended dsRNA (dsRNA)
RNA 1: AGAAGGAGGGAGGGAGGA
RNA 2: UCCUCCCUCCCUCCUUCU
Question: Which results are given for B2?
Answer: Kd ([2]; blunt): 28.6 ± 16.5 µM; Kd [3]: 2.5 ± 0.1 µM; Kd [4]: 1.9 ± 0.1 µM; Kd [5]: 8.4 ± 0.2 µM

B3: 12-bp palindromic dsRNA (crystal) (dsRNA)
RNA 1: CUAGACGUCUAG
RNA 2: CUAGACGUCUAG
Question: Does B3 bind [6]?
Answer: binds

B4: 18-bp dsRNA with 3' overhang (dsRNA)
RNA 1: AGAAGGAGGGAGGGAGGAGAG
RNA 2: CUCUCCUCCCUCCCUCCUUCU
Question: Which Kd [2] does the source give for B4 here?
Answer: 3.4 µM

Question: And the Kd [7]?
Answer: 9.3 ± 0.2 µM

Question: And the Kd [8]?
Answer: 6 ± 0.2 µM

Question: And the Kd [9]?
Answer: 17.1 ± 0.7 µM

Reference: PMC3441732, “Marburg Virus VP35 Can Both Fully Coat the Backbone and Cap the Ends of dsRNA for Interferon Antagonism”
